Assay results as given in patent US20110301073.

What was measured:
[1] = tested on: TALE repeat framework A10L (SEQ 408) repeat 5: A10L (Xanthomonas sp. (engineered)); conditions: average of 3 experiments
[2] = tested on: TALE repeat framework A8L (SEQ 404) repeat 5: A8L (Xanthomonas sp. (engineered)); conditions: average of 3 experiments
[3] = tested on: TALE repeat framework E20A (SEQ 410) repeat 5: E20A (Xanthomonas sp. (engineered)); conditions: average of 3 experiments
[4] = tested on: TALE repeat framework I9V (SEQ 407) repeat 5: I9V (Xanthomonas sp. (engineered)); conditions: average of 3 experiments
[5] = tested on: TALE repeat framework P27L (SEQ 422) repeat 5: P27L (Xanthomonas sp. (engineered)); conditions: average of 3 experiments
[6] = tested on: TALE repeat framework Q23R (SEQ 414) repeat 5: Q23R (Xanthomonas sp. (engineered)); conditions: average of 3 experiments
[7] = tested on: TALE repeat framework Q23W (SEQ 416) repeat 5: Q23W (Xanthomonas sp. (engineered)); conditions: average of 3 experiments
[8] = tested on: TALE repeat framework T21A/Q23R/R24A (SEQ 423) repeat 5: T21A,Q23R,R24A (Xanthomonas sp. (engineered)); conditions: average of 3 experiments
[9] = tested on: TALE repeat framework T2S/P3T/D4A (SEQ 424) repeat 5: T2S,P3T,D4A (Xanthomonas sp. (engineered)); conditions: average of 3 experiments
[10] = tested on: TALE repeat framework T2S/P3T/D4A/T21A/Q23R/R24A (SEQ 425) repeat 5: T2S,P3T,D4A,T21A,Q23R,R24A (Xanthomonas sp. (engineered)); conditions: average of 3 experiments
[11] = tested on: TALE repeat framework V22A (SEQ 412) repeat 5: V22A (Xanthomonas sp. (engineered)); conditions: average of 3 experiments
[12] = tested on: TALE test backbone, repeat 5 RVD AA (synthetic (Xanthomonas TALE)); conditions: ELISA
[13] = tested on: TALE test backbone, repeat 5 RVD AD (synthetic (Xanthomonas TALE)); conditions: ELISA
[14] = tested on: TALE test backbone, repeat 5 RVD AE (synthetic (Xanthomonas TALE)); conditions: ELISA
[15] = tested on: TALE test backbone, repeat 5 RVD AN (synthetic (Xanthomonas TALE)); conditions: ELISA
[16] = tested on: TALE test backbone, repeat 5 RVD AT (synthetic (Xanthomonas TALE)); conditions: ELISA
[17] = tested on: TALE test backbone, repeat 5 RVD DH (synthetic (Xanthomonas TALE)); conditions: ELISA
[18] = tested on: TALE test backbone, repeat 5 RVD DK (synthetic (Xanthomonas TALE)); conditions: ELISA
[19] = tested on: TALE test backbone, repeat 5 RVD GG (synthetic (Xanthomonas TALE)); conditions: ELISA
[20] = tested on: TALE test backbone, repeat 5 RVD HA (synthetic (Xanthomonas TALE)); conditions: ELISA
[21] = tested on: TALE test backbone, repeat 5 RVD HG (synthetic (Xanthomonas TALE)); conditions: ELISA
[22] = tested on: TALE test backbone, repeat 5 RVD HI (synthetic (Xanthomonas TALE)); conditions: ELISA
[23] = tested on: TALE test backbone, repeat 5 RVD HN (synthetic (Xanthomonas TALE)); conditions: ELISA
[24] = tested on: TALE test backbone, repeat 5 RVD IA (synthetic (Xanthomonas TALE)); conditions: ELISA
[25] = tested on: TALE test backbone, repeat 5 RVD IG (synthetic (Xanthomonas TALE)); conditions: ELISA
[26] = tested on: TALE test backbone, repeat 5 RVD IP (synthetic (Xanthomonas TALE)); conditions: ELISA
[27] = tested on: TALE test backbone, repeat 5 RVD KD (Xanthomonas sp. (engineered)); conditions: RVD KD
[28] = tested on: TALE test backbone, repeat 5 RVD KG (synthetic (Xanthomonas TALE)); conditions: ELISA
[29] = tested on: TALE test backbone, repeat 5 RVD KI (synthetic (Xanthomonas TALE)); conditions: ELISA
[30] = tested on: TALE test backbone, repeat 5 RVD KS (synthetic (Xanthomonas TALE)); conditions: ELISA
[31] = tested on: TALE test backbone, repeat 5 RVD KT (synthetic (Xanthomonas TALE)); conditions: ELISA
[32] = tested on: TALE test backbone, repeat 5 RVD LA (synthetic (Xanthomonas TALE)); conditions: ELISA
[33] = tested on: TALE test backbone, repeat 5 RVD NA (synthetic (Xanthomonas TALE)); conditions: ELISA
[34] = tested on: TALE test backbone, repeat 5 RVD ND (Xanthomonas sp. (engineered)); conditions: RVD ND
[35] = tested on: TALE test backbone, repeat 5 RVD NG (Xanthomonas sp. (engineered)); conditions: RVD NG
[36] = tested on: TALE test backbone, repeat 5 RVD NI (Xanthomonas sp. (engineered)); conditions: RVD NI
[37] = tested on: TALE test backbone, repeat 5 RVD NN (Xanthomonas sp. (engineered)); conditions: RVD NN
[38] = tested on: TALE test backbone, repeat 5 RVD NS (synthetic (Xanthomonas TALE)); conditions: ELISA
[39] = tested on: TALE test backbone, repeat 5 RVD QA (synthetic (Xanthomonas TALE)); conditions: ELISA
[40] = tested on: TALE test backbone, repeat 5 RVD QG (synthetic (Xanthomonas TALE)); conditions: ELISA
[41] = tested on: TALE test backbone, repeat 5 RVD RA (synthetic (Xanthomonas TALE)); conditions: ELISA
[42] = tested on: TALE test backbone, repeat 5 RVD RG (synthetic (Xanthomonas TALE)); conditions: ELISA
[43] = tested on: TALE test backbone, repeat 5 RVD RI (synthetic (Xanthomonas TALE)); conditions: ELISA
[44] = tested on: TALE test backbone, repeat 5 RVD SG (synthetic (Xanthomonas TALE)); conditions: ELISA
[45] = tested on: TALE test backbone, repeat 5 RVD SN (synthetic (Xanthomonas TALE)); conditions: ELISA
[46] = tested on: TALE test backbone, repeat 5 RVD TA (synthetic (Xanthomonas TALE)); conditions: ELISA
[47] = tested on: TALE test backbone, repeat 5 RVD TP (synthetic (Xanthomonas TALE)); conditions: ELISA
[48] = tested on: TALE test backbone, repeat 5 RVD VG (synthetic (Xanthomonas TALE)); conditions: ELISA
[49] = tested on: TALE test backbone, repeat 5 RVD YG (synthetic (Xanthomonas TALE)); conditions: ELISA
[50] = tested on: TALE test backbone, repeat 5 RVD HD, standard framework (SEQ 333) (Xanthomonas sp. (engineered)); conditions: reference

Sequence: TTGACCATCCT (double strand) [CCA target]
- binding signal (normalized ELISA) [1]: 0.25
- binding signal (normalized ELISA) [2]: 0.73
- binding signal (normalized ELISA) [3]: 0.82
- binding signal (normalized ELISA) [4]: 0.76
- binding signal (normalized ELISA) [5]: 1.29
- binding signal (normalized ELISA) [6]: 0.97
- binding signal (normalized ELISA) [7]: 0.88
- binding signal (normalized ELISA) [8]: 1.42
- binding signal (normalized ELISA) [9]: 0
- binding signal (normalized ELISA) [10]: 0
- binding signal (normalized ELISA) [11]: 0.7
- binding signal (normalized ELISA) [12]: 0.35
- binding signal (normalized ELISA) [13]: 0.4
- binding signal (normalized ELISA) [14]: 0
- binding signal (normalized ELISA) [15]: 0
- binding signal (normalized ELISA) [16]: 0.58
- binding signal (normalized ELISA) [17]: 0.01
- binding signal (normalized ELISA) [18]: 0
- binding signal (normalized ELISA) [19]: 0.35
- binding signal (normalized ELISA) [20]: 0.53
- binding signal (normalized ELISA) [21]: 0.11
- binding signal (normalized ELISA) [22]: 0.1
- binding signal (normalized ELISA) [23]: 0
- binding signal (normalized ELISA) [24]: 0.24
- binding signal (normalized ELISA) [25]: 0.02
- binding signal (normalized ELISA) [26]: 0.13
- binding signal (normalized ELISA) [27]: 0.61
- binding signal (normalized ELISA) [28]: 0.27
- binding signal (normalized ELISA) [29]: 0.11
- binding signal (normalized ELISA) [30]: 0.78
- binding signal (normalized ELISA) [31]: 0.81
- binding signal (normalized ELISA) [32]: 0.02
- binding signal (normalized ELISA) [33]: 0.67
- binding signal (normalized ELISA) [34]: 0.73
- binding signal (normalized ELISA) [35]: 0.14
- binding signal (normalized ELISA) [36]: 0.04
- binding signal (normalized ELISA) [37]: 0
- binding signal (normalized ELISA) [38]: 0.26
- binding signal (normalized ELISA) [39]: 0.19
- binding signal (normalized ELISA) [40]: 0.11
- binding signal (normalized ELISA) [41]: 0.89
- binding signal (normalized ELISA) [42]: 0.26
- binding signal (normalized ELISA) [43]: 0.05
- binding signal (normalized ELISA) [44]: 0.23
- binding signal (normalized ELISA) [45]: 0.01
- binding signal (normalized ELISA) [46]: 0.2
- binding signal (normalized ELISA) [47]: 0.2
- binding signal (normalized ELISA) [48]: 0.02
- binding signal (normalized ELISA) [49]: 0.02
- binding signal (normalized ELISA) [50]: 1
